Data on one molecule can be found in publication PMC10444775 (Scientific Reports, 2023).

This experiment deals with SARS-CoV-2 PreS Spike ECD protein, biotinylated via a C-terminal Avi tag (SARS-CoV-2, Wuhan wild type, K986P | V987P | 682-685 RRAR to GSAS, biotin on the Avi tag). Kind of experiment: SPR. The following applies: both partners purified.

B1: 7A9 VHH (VHH)
VHH: QVQLVESGGGLVQAGGSLRLSCSASGGTASRSAMGWFRQAPGKEREFVAGISRRNSGSTYVADSYEDSVKGRFTISRDNAKNTIYLQMNSLKPEDTAVYYCAAEPTLGWYVPRRSVEYEYWGQGTQVTVSS
notes: also called VHH 7A9; 7A9 VHH monomer; source: ExpiCHO, transiently transfected, purified
Regarding B1, binding was characterised by a dissociation constant (Kd) of 0.22 nM. In other words, the sub-nanomolar range.
